# Biological target: GST-EphB1cy, self-phosphorylated in vitro (+ATP) (UniProt P54762)
# Sequence (P54762 564-984): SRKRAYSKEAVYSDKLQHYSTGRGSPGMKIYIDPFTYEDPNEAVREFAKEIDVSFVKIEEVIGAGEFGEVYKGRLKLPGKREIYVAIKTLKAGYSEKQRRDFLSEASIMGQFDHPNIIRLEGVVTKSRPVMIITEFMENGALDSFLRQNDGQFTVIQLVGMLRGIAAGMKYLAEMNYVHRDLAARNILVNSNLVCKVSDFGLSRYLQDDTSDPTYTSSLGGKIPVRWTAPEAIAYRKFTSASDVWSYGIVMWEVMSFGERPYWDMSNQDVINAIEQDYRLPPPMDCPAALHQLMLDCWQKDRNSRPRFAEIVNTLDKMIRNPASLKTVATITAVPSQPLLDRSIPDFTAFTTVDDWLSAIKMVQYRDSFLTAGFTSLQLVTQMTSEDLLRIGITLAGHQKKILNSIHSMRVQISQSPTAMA
substance,measurement,value
purified recombinant LMW-PTP (A isoform),in vitro tyrosine phosphorylation of LMW-PTP,EphB1 receptor tyrosine kinase phosphorylates LMW-PTP in vitro

# Reference: patent US20030157712
